The test has as its target SkSGL from Sanguibacter keddieii fused with a His6-tag at the C-terminus (Group 2 / GH193 β-1,2-glucanase) (Sanguibacter keddieii). Put plainly: SEC; Superdex 200 (HiLoad 16/60), 20 mM Tris-HCl (pH 7.5) in place of 50 mM Tris-HCl (pH 8.0); size by protein markers. In general terms: SEC sorts molecules by how far they enter the pores of the column.

In general, stoichiometry N refers to a count of units in the complex or per binding partner. For “SkSGL from Sanguibacter keddieii fused with a His6-tag at the C-terminus (Group 2 / GH193 β-1,2-glucanase) (enzyme)”, the stoichiometry N was determined as 2.
